Data published in article PMC7172368 (Antiviral Research, 2007).

Molecular target: the molecule itself
Test: native gel or EMSA

B1: recombinant porcine ficolin α with C-terminal V5 and 6 x His tags (natural protein)
chain: not shown
- binding result: binds
